Test [1] concerns the target T1, biotinylated B Lymphocyte Stimulator, soluble form (human, UniProt Q9Y275 134-285, biotinylated with NHS-biotin, molar ratio 20:1 biotin:protein).
T1 construct: also called bio-B Lymphocyte Stimulator; free B Lymphocyte Stimulator
In words: phage scFv, receptor binding inhibition on IM9 cells. As to the method: All of the unique phage scFvs from panel 2 were assessed for their ability to inhibit B Lymphocyte Stimulator binding to its cognate receptor on IM9 cells. The biotinylation of B Lymphocyte Stimulator, maintenance of IM9 cells and receptor binding inhibition assay were performed as described in Example 3.

Test [2] deals with T2, HIS-tagged B Lymphocyte Stimulator (human, UniProt Q9Y275 71-285).
T2 construct: Expressed in E. coli; also called HIS-B Lymphocyte Stimulator; histidine-tagged B Lymphocyte Stimulator; not shown: histidine tag from the pQE9 vector
In words: BIAcore, periplasmic scFv over high density HIS-BLyS surface. As to the method: All BIAcore analysis was performed on BIAcore 2000 machines, using the BIAcore 2000 control software and evaluated using the BIAevaluation 3.0 software. A high density His-tagged B Lymphocyte Stimulator surface (>1000 RU HIS-B Lymphocyte Stimulator coupled) was prepared in flow cell 2 by amine coupling to a CM5 chip. A new CM5 chip was inserted into the BIAcore and a sensorgram started over flow cell 2 with HBS buffer at a flow rate of 5 μl/min. The NHS and EDC solution were mixed 1:1 before injecting 30 μl over the CM5 surface. Fifty μl HIS-B Lymphocyte Stimulator (at 10 μg/ml in Sodium acetate buffer, pH4) was injected and allowed to couple to the surface. Thirty μl of ethanolamine-HCl solution was then injected to block free NHS esters. Prior to using the chip, 10 μl of 4M Guanidine hydrochloride in HBS was injected over the surface to strip the surface of non-covalently bound B Lymphocyte Stimulator. A blank surface (no HIS-B Lymphocyte Stimulator) was also prepared over flow cell 1 so that non-specific binding effects can be subtracted from the HIS-B Lymphocyte Stimulator binding curves.
The 96-well plate containing periplasmic scFvs was secured inside the BIAcore. Two ml of 4M Guanidine hydrochloride in HBS was placed in a rack inside the BIAcore for regeneration of the HIS-B Lymphocyte Stimulator surface between samples. The sensorgram was run over flow cells 1 and 2 at a flow rate of […].

Where a chain is given by its changes, count along the chain named.

B1: I026C04-R (scFv)
scFv: QVQLVQSGAEVKKPGSSVKVSCRASGGSFNRHAISWVRQAPGRGLEWMGGILPMYGTANYAQKFQGRVTITADKLTNTVYMDLSRLRYEDTAVYYCARELGLSIVGATTGALDMWGKGTLVTVSSGGGGSGGGGSGGGGSAQSVLTQPPSVSAAPGQKVTISCSGSSSNIGNNYVSWYQQIPGTAPKLLIYENNKRPSGIPDRFSGSKSGASATLDITGLQTGDEADYYCGTWHSSQVVFGGGTKLTVLG
Consider B1, for which the binding result in test [1] is listed as “binds”.

B2: I079C01 (scFv)
scFv: EVQLVESGGGLVQPGGSLRLSCAASGFTFSDYGMHWVRQRPGKGLEWIAFIGSDGSNKYYGDTVKGRFTISRDNAKNSLYLQMNSLRAEGTAVYYCARDWDMDVWGQGTMVTVSSGGGGSGGGGSGGGGSHVILTQPRSVSGSPGQSVTISCTGTSSDVGGYHYVSWYQQHPGKAPRLMIYEVTKRPSGVSNRFSGSKSGNTASLTISGVQAEDEADYYCSSYTSASTVIFGGGTKLTVLG
B2: the binding result in test [2] is given as “binds”.

B3: I067B10 (scFv)
scFv: QMQLVQSGAEVKKPGASVKVSCKASGYTFTSYYMHWVRQAPGQGLEWMGWINAGNSNTKYSQKFQGRVTITSDTSASTAYMELSGLRSEDTAVYYCARDRGAPNYDILTGYYAPAQGVAFDIWGKGTLATVSSGGGGSGGGGSGGGGSQSVLTQPPSVSAAPGQKVTISCSGSTSNIGNNYVSWYQQHPGKAPKLMIYDVSKRPSGVPDRFSGSKSGNSASLDISGLQSEDEADYYCAAWDDSLSEFLFGTGTKLTVLG
Regarding B3, the binding result in test [1] is listed as “binds”.

B4: I064C04 (scFv)
scFv: QVQLVQSGAEVKKPGASVKVSCEASGYTFTSYGISWVRQAPGQGLEWMGWISTYNGNTRYPQKLQGRVTMTTDTSTSTAYMDLRSLRSDDTAVYYCARDGRLSYDILTGYYARDYYGMDDWGRGTMVTVSSGGGGSGGGGSGGGGSQSVLTQPASVSGSPGQSITISCTGTSSDVGGYNYVSWYQQHPGKAPKLMIYEGSKRPSGVSNRFSGSKSGNTASLTISGLQAEDEADYYCSSYTTRSTRVFGGGTKLTVLG
In the case of B4, the binding result in test [1] is on record as “binds”.

B5: I064C07 (scFv)
scFv: QVQLVQSGAEVKKPGSSVKVSCKASGGTFSSYAISWVRQAPGQGLEWMGGIIPIFGTANYAQKFQGRVTITADDLTRTAYMEMSSLKFEDTAVYYCASSEGTIFGVDWGRGTLVTVSSGGGGSGGGGSGGGGSDIQMTQSPSFLSASVGDRVTITCRASQGINNYLAWYQQKPGRAPKLLMYAASSLQSGVPSRFSGSGSGTDFTLTISSLQPEDFATYYCLQDSDYPLTFGGGTKLEIKR
B5: the binding result in test [1] is on record as “binds”.

B6: I079F06 (scFv)
scFv: QVQLVESGGGLVQPGGSLRLSCAASGFTFSSYWMSWVRQAPGKGLEWVANIKQDGSEKYYVDSVKGRFTISRDNAKNSLYLQMNSLRAEDTAVYYCARDNLHAAFDIWGRGTLVTVSGGGGGSGGGGSGGGGSDIQMTQSPSTLSASIGDRVTITCRASEGIYHWLAWYQQKPGKAPKLLIYKASSLASGAPSRFSGSGSGTDFTLTISSLQPDDFATYYCQQYSNYPLTFGGGTKLEIKR
As to B6, the binding result in test [2] is listed as “binds”.

B7: I002A01-R (scFv)
scFv: QVQLVQSGAEVKKPGSSVKVSCRASGGSFNRHAISWVRQAPGRGLEWMGGILPMYGTANYAQKFQGRVTITADKLTNTVYMDLSRLRYEDTAVYYCARELGLSIVGATTGALDMWGKGTLVTVSSGGGGSGGGGSGGGGSALPVLTQPPSVSVAPGQTATLTCGGTNFGRQSVHWYQQKPGQAPVLAIYHDDVRPSGIPERLSGSKSGNTATLTISRVEAGDEAAYYCQVWDSGSDVVVFGGGTKLTVLG
For the molecule B7, the binding result in test [1] is listed as “binds”.

B8: I002A01-K (scFv)
scFv: B7 scFv with R31K
With B8, the binding result in test [1] is on record as “binds”.

B9: I065F08 (scFv)
scFv: QVQLQQSGAEVKKPGSSVKVSCKASGDTFSSFGISWVRQVPGQGLEWMGAIIPKFDIVTYAEEFKGRVTISADKLTNTAYMEVKSLRSEDTAVYYCTREKSAAGYFDYWGKGTLVTVSSGGGGSGGGGSGGGGSDIVMTQSPSTLSASVGDRVTITCRASQGISSWLAWYQQKPGRAPKVLIYKASTLESGVPSRFSGSGSGTDFTLTISSLQPEDFATYYCQQSYSTPWTFGQGTKLEIKR
Turning to B9, the binding result in test [1] was “binds”.

B10: I080E05 (scFv)
scFv: EVQLVQSGAAVKKPGASVKVSCKASGYTFTTYYIHWVRQAPGQGLEWMGIINPVNGNTIYAQKFQGRVTMTRDTSTGTVNMELSSLRSEDTAVFYCVREGGGDAYDVAPYYFDYWGQGTLVTVSSGGGGSGGGGSGGGGSAQAVLTQPSSVSGAPGQRVTISCTGSSSNIGDGYDVHWYQQLPGTAPKLLIYGNSHRPSGVPDRFSGSKSDTSASLAITGLQVEDEADYFCHSYDSSVSGWIFGGGTKLTVLG
In the case of B10, the binding result in test [2] is recorded as “binds”.

B11: I079B05 (scFv)
scFv: GVQLVESGGGLVKPGGSLRLSCATSGFRFSDYAMTWVRQAPGKGLEWVSSITGSGGGTHYAGSVRGRFTISRDNSKNTVYLQMNNLRPEDTAVYYCASFVLDYWGKGTLVTVSSGGGGSGGGGSGGGGSQSVLTQPASVSGSPGQSITISCTGTSSDVGGYNYVSWYQQHPGKAPKLMIYEGSKRPSGVSNRFSGSKSGNTASLTISGLQAEDEADYYCSSYTTRSTRVFGGGTKLTVLG
In the case of B11, the binding result in test [2] is reported as “binds”.

B12: I083B12 (scFv)
scFv: QVQLVQSGAEVKKPGASVKVSCKASEYTFYNHYMHWVRQAPGQGLEWMGFINPSGDAAWYAQKFQGRVTLTRDTSTRTVYMELSGLTSEDTAVYYCARESGAGGYYYDDYWGKGTLVTVSSGGGGSGGGGSGGGGSALSYVLTQPPSVSVAPGKTASIPCGGNNIGSKSVQWYLQKAGQAPILVVYDDSDRPSGIPERFSGSNSGNTATLTITRVEAGDEADYYCQVWDSSSDHWFFGGGTKLTVLG
B12: the binding result in test [2] is “binds”.

B13: I065D08 (scFv)
scFv: GVQLVQSGAEVKKPGASVKVSCKASGYTFTSYGISWVRQAPGQGLEWMGWISAYNGNTNYAQKLQGRVTMTTDTSTSTAYMELRSLRSDDTAVYYCARTPSSVYDLLTGYYHYFYSYMDVWGRGTMVTVSSGGGGSGGGGSGGGGSQSVLTQPASVSGSPGQSITISCTGTSSDVGGYNYVSWYQQHPGEAPKLMIYEGSKRPSGVSNRFSGSKSGNTASLTISGLQAEDEADYYCSSYTTRSTRVFGGGTKLTVLG
In the case of B13, in test [1], the binding result was “binds”.

B14: I072B09 (scFv)
scFv: QVQLQQSGAEVKKPGASVKVSCRASGYTFTKYTMHWVRQAPGQGPEWMGWINGGSGDTKYSRKFQGRVTITKDTSASAAYMELSSLGSEDTALYYCARATYDPLTGYSFDGFDIWGQGTLVTVSSGGGGSGGGGSGGGGSSELTQDPAVSVALGQTVRITCQGDSLRSYYTNWFQQKPGQAPLLVVYAKNKRPSGIPDRFSGSSSGNTASLTITGAQAEDEADYYCNSRDSSGNHVVFGGGTKLTVLD
Regarding B14, in test [1], the binding result was “binds”.

B15: I067F05 (scFv)
scFv: QVQLQQSGAEVKKPGSSVKVSCKASGGTFSSYAISWVRQAPGQGLEWMGRIIPIVNMANYAQKFQGRVTLTADKSTGTAYMELTSLRSEDTAVYYCARENYDSLTGYYGAFDIWGKGTMVTVSSGGGGSGGGGSGGGGSQSVLTQPASVSGSPGQSITISCTGTSSDVGGYNYVSWYQQHPGKAPKLMIYEGSKRPSGVSNRFSGSKSGNTASLTISGLQAEDEADYYCSSYTTRSTRVFGGGTKLTVLG
Consider B15, for which, in test [1], the binding result is given as “binds”.

B16: I079F08 (scFv)
scFv: QMQLVQSGGGVVQPGRSLRLSCAASGFTFSSYGMHWVRQAPGKGLEWVAVISYDGSIKYYADSVKGRFTISRDNSKNTLYLQMNSLRAEDTAVYYCARYYYHSSGSDAFDIWGQGTLVTVPSGGGGSGGGGSGGGGSQSVLTQPPSASGTPGQRVTISCSGSSSNIGSNTVNWYQRLPGAAPQLLIYNNNQRPSGVPDRFSGSKSGTSASLAISGLQSEDEADYYCAAWDDSLNGWVFGGGTKLTVLG
As for B16, the binding result in test [2] was “binds”.

B17: I084C04 (scFv)
scFv: VQLVQSGAEVKKPGASVKVSCKASGYTFTSYGISWVRQAPGQGLEWMGWINPNSGGTNYAQKFQGRVTMTRDTSISTAYMELSRLRSDDTAVYYCARNLWGLDYWGKGTMVTVSSGGGGSGGGGSGGGGSSELTQDPAVSVALGQTVRITCQGDSLRSYYASWYQQKPGQAPVLVIYGKNNRPSGIPDRFSGSSSGNTASLTITGAQAEDEADYYCNSRDSSGNHVVFGGGTKLTVLG
For B17, the binding result in test [2] is on record as “binds”.

B18: I082G01 (scFv)
scFv: QMQLVQSGAEVKKPGASVKVSCKASGYTFTSYYMHWVRQAPGQGLEWMGLVHPNDGSVNYAQKFKGRVTMTRDTSTSTVYMELSSLRSDDTAVYYCARDRGSGWPNWYFDLWGQGTLVTVSSGGGGSGGGGSGGGGSDIQMTQSPSTLSASIGDRVTITCRASEGIYHWLAWYQQKPGKAPKLLIYKASSLASGAPSRFSGSGSGTDFTLTISSLQPDDFATYYCQQYSNYPLTFGGGTKLEIKH
For the molecule B18, in test [2], the binding result is “binds”.

The record behind these values is US20110293610A1 (published 2011).
